Data: the supplement of paper PMC7125110
± gives the standard error. For some of these results: Fewer inactive variants are shown than the library holds.

B1: glmS ribozyme (parent)
chain: AUAAAAGCGCCAGAACUACAGAAAUGUAGUUGACGAGGAGGAGGUUUAUCGAAUUUUCGGCGGAUGCCUCCAAA

Tests used:
Conditions in all cases: with glucosamine-6-phosphate
glucosamine-6-phosphate [1] = variants of: B1; assay: kcat; higher = faster cleavage; RNA array
How it was run: (§1)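 Weighted Michaelis–Menten fits across concentrations supplied kcat and KM, based on kobs from one- or two-exponential decay fits to normalised per-tile medians. The data came from barcoded ribozyme variants transcribed in situ by E. coli RNA polymerase on sequenced MiSeq chips and tracked at 37 °C by a hybridised Cy3 probe. Glucosamine-6-phosphate (40 μM to 10 mM) in HEPES/KCl/Mg(OAc)2 buffer was flowed in.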

glucosamine-6-phosphate [2] = variants of: B1; assay: KM; higher = weaker cofactor use; RNA array
How it was run: as §1

glucosamine-6-phosphate [3] = variants of: B1; assay: self-cleavage kobs at 640 uM GlcN6P; higher = faster cleavage; RNA array
How it was run: as §1

glucosamine-6-phosphate [4] = variants of: B1; assay: self-cleavage kobs at 2500 uM GlcN6P; higher = faster cleavage; RNA array
How it was run: as §1

glucosamine-6-phosphate [5] = variants of: B1; assay: self-cleavage kobs at 10000 uM GlcN6P; higher = faster cleavage; RNA array
How it was run: as §1

glucosamine-6-phosphate [6] = variants of: B1; assay: self-cleavage kobs at 160 uM GlcN6P; higher = faster cleavage; RNA array
How it was run: as §1

glucosamine-6-phosphate [7] = variants of: B1; assay: self-cleavage kobs at 40 uM GlcN6P; higher = faster cleavage; RNA array
How it was run: as §1

Variant | kcat (glucosamine-6-phosphate [1]) | KM (glucosamine-6-phosphate [2]) | self-cleavage kobs at 640 uM GlcN6P (glucosamine-6-phosphate [3]) | self-cleavage kobs at 2500 uM GlcN6P (glucosamine-6-phosphate [4]) | self-cleavage kobs at 10000 uM GlcN6P (glucosamine-6-phosphate [5]) | self-cleavage kobs at 160 uM GlcN6P (glucosamine-6-phosphate [6]) | self-cleavage kobs at 40 uM GlcN6P (glucosamine-6-phosphate [7])
A42C C67A | 0.000122 ± 1.6e-05 s⁻¹ | 1160 ± 560 µM | 5.06e-05 ± 1.6e-05 s⁻¹ | 5.66e-05 ± 2.8e-05 s⁻¹ | 0.000114 ± 1.7e-05 s⁻¹ |  | 
A14U G35U | < 1e-05 s⁻¹ |  |  | < 1e-05 s⁻¹ |  | < 1e-05 s⁻¹ | 
G43A C67G | 0.00156 ± 0.00014 s⁻¹ | 2110 ± 290 µM | 0.000321 ± 5.4e-05 s⁻¹ | 0.000994 ± 0.00015 s⁻¹ | 0.00126 ± 0.00013 s⁻¹ | 0.000114 ± 1.3e-05 s⁻¹ | 2.87e-05 ± 6.8e-06 s⁻¹
U45G U46G | 0.00603 ± 0.0024 s⁻¹ |  | 0.000961 ± 0.00019 s⁻¹ | 0.00158 ± 0.00036 s⁻¹ | 0.00523 ± 0.00084 s⁻¹ | 0.000206 ± 5.5e-05 s⁻¹ | 7.27e-05 ± 1.4e-05 s⁻¹
U30G A42U C67G | 0.00016 ± 2.9e-05 s⁻¹ |  | 8.82e-05 ± 2.3e-05 s⁻¹ | 0.000107 ± 2.9e-05 s⁻¹ | 0.000167 ± 4.5e-05 s⁻¹ |  | 
A12U A14C | 0.00505 ± 0.0013 s⁻¹ | 1630 ± 560 µM | 0.00117 ± 0.00016 s⁻¹ | 0.00261 ± 0.00038 s⁻¹ | 0.00546 ± 0.00066 s⁻¹ | 0.000429 ± 6.9e-05 s⁻¹ | 0.000142 ± 1.3e-05 s⁻¹
C50G G63C | 2.84e-05 ± 1.1e-05 s⁻¹ |  |  |  |  | 3.67e-05 ± 1.6e-05 s⁻¹ | 
A36C U54A | < 1e-05 s⁻¹ |  |  |  |  | < 1e-05 s⁻¹ | 
A15U A52U | 0.000143 ± 1.2e-05 s⁻¹ | 1610 ± 370 µM | 3.6e-05 ± 1e-05 s⁻¹ | 9.15e-05 ± 9.9e-06 s⁻¹ | 0.000119 ± 1.5e-05 s⁻¹ |  | < 1e-05 s⁻¹
A14U A15G C34G C50A G62U | 1.29e-05 ± 5.5e-06 s⁻¹ |  |  |  |  |  | 
U31A G66A | 0.0119 ± 0.0032 s⁻¹ | 6540 ± 2200 µM | 0.00114 ± 0.00021 s⁻¹ | 0.00305 ± 0.00048 s⁻¹ | 0.00767 ± 0.0017 s⁻¹ | 0.000259 ± 6.1e-05 s⁻¹ | 0.000105 ± 3.4e-05 s⁻¹
G13U A15G | 0.00265 ± 0.0011 s⁻¹ |  | 0.000388 ± 7.5e-05 s⁻¹ | 0.000584 ± 0.00014 s⁻¹ | 0.00191 ± 0.00025 s⁻¹ | 0.000116 ± 5e-05 s⁻¹ | 
A15G C58G | 0.00042 ± 0.00013 s⁻¹ |  |  | 8.41e-05 ± 1.3e-05 s⁻¹ | 0.000197 ± 6.1e-05 s⁻¹ |  | 
G32A G38U G59A U65A C70G | 1.63e-05 ± 2.9e-06 s⁻¹ |  |  |  |  |  | 
U47G G59U | 2.47e-05 ± 4.4e-06 s⁻¹ |  |  | 3.31e-05 ± 1.7e-05 s⁻¹ | 2.13e-05 ± 1e-05 s⁻¹ |  | 
A48G U55G | 9.18e-05 ± 6.4e-06 s⁻¹ | 759 ± 210 µM | 4.19e-05 ± 7.6e-06 s⁻¹ | 0.000108 ± 3.8e-05 s⁻¹ | 8.43e-05 ± 7.8e-06 s⁻¹ |  | < 1e-05 s⁻¹
A12C U49C | < 1e-05 s⁻¹ |  |  |  | < 1e-05 s⁻¹ |  | 
C19A G40C | 0.00125 ± 0.00032 s⁻¹ | 832 ± 360 µM | 0.000434 ± 0.00012 s⁻¹ | 0.00156 ± 0.00041 s⁻¹ | 0.00113 ± 0.00023 s⁻¹ | 0.000173 ± 5.2e-05 s⁻¹ | 7.99e-05 ± 1.9e-05 s⁻¹
G29C A39C | 0.000582 ± 8.5e-05 s⁻¹ | 4360 ± 1100 µM | 7.25e-05 ± 1.1e-05 s⁻¹ | 0.000212 ± 3e-05 s⁻¹ | 0.000406 ± 4.2e-05 s⁻¹ | 6.14e-05 ± 2.9e-05 s⁻¹ | 
U65A | 0.0061 ± 0.001 s⁻¹ | 2260 ± 500 µM | 0.00117 ± 3.3e-05 s⁻¹ | 0.00375 ± 0.00015 s⁻¹ | 0.00502 ± 0.00012 s⁻¹ | 0.000336 ± 1.5e-05 s⁻¹ | 0.00012 ± 2.4e-06 s⁻¹
U65C | 0.000875 ± 9.1e-05 s⁻¹ | 1690 ± 310 µM | 0.000238 ± 5.5e-06 s⁻¹ | 0.000626 ± 1.6e-05 s⁻¹ | 0.000705 ± 1.6e-05 s⁻¹ | 6.95e-05 ± 2.6e-06 s⁻¹ | 2.21e-05 ± 2.1e-06 s⁻¹
U65G | 0.00543 ± 0.0002 s⁻¹ | 3670 ± 190 µM | 0.000813 ± 1.9e-05 s⁻¹ | 0.00237 ± 8.3e-05 s⁻¹ | 0.00393 ± 7.2e-05 s⁻¹ | 0.000217 ± 7.2e-06 s⁻¹ | 5.85e-05 ± 1.3e-06 s⁻¹
U45G A48U | 0.000351 ± 8.1e-05 s⁻¹ | 3040 ± 1200 µM | 5.51e-05 ± 1.4e-05 s⁻¹ | 0.000209 ± 4.5e-05 s⁻¹ | 0.000246 ± 5.7e-05 s⁻¹ |  | 
G32U A42G | 0.00137 ± 0.00021 s⁻¹ | 3790 ± 810 µM | 0.000218 ± 4e-05 s⁻¹ | 0.000528 ± 0.00013 s⁻¹ | 0.000988 ± 0.00023 s⁻¹ | 4.61e-05 ± 1.7e-05 s⁻¹ | 
A53C C70A | 5.94e-05 ± 1.5e-05 s⁻¹ |  |  | 6.85e-05 ± 1.7e-05 s⁻¹ | 5.03e-05 ± 1.1e-05 s⁻¹ |  | < 1e-05 s⁻¹
A12G G29U C67G | 7.88e-05 ± 1.7e-05 s⁻¹ |  |  |  | 6.04e-05 ± 1.4e-05 s⁻¹ |  | 
U54G G66U | 0.00193 ± 0.00025 s⁻¹ | 1570 ± 340 µM | 0.000509 ± 4.8e-05 s⁻¹ | 0.000956 ± 0.00014 s⁻¹ | 0.00181 ± 0.00013 s⁻¹ | 0.000183 ± 2.7e-05 s⁻¹ | 5.67e-05 ± 5.9e-06 s⁻¹
A15G C68U | 0.00322 ± 0.00055 s⁻¹ | 1130 ± 300 µM | 0.00112 ± 0.00019 s⁻¹ | 0.00139 ± 0.00047 s⁻¹ | 0.00316 ± 0.00032 s⁻¹ | 0.00032 ± 7.2e-05 s⁻¹ | 0.000128 ± 1.5e-05 s⁻¹
C16U A48G | 7.95e-05 ± 1.2e-05 s⁻¹ |  |  | 6.63e-05 ± 1.1e-05 s⁻¹ | 6.95e-05 ± 8.6e-06 s⁻¹ |  | 
G13C U45A | 0.000315 ± 0.00011 s⁻¹ |  | 6.93e-05 ± 3.2e-05 s⁻¹ | 9.3e-05 ± 2.3e-05 s⁻¹ | 0.000213 ± 3.9e-05 s⁻¹ |  | 
